The results in this text go back to patent US8551717B2, “Method for determining sumoylation” (Medizinische Hochschule Hannover, priority 2008, dated 2013).

One experiment has as its target T1, p53-U (Homo sapiens, UniProt P04637+P63279).
T1 construct: expressed in transfected cells; host or cells: HEK293
Briefly: Trans-SUMOylation by p53-U. Format: cell-based. The settings on record: western blot. On the technique in general: In western blotting, separated proteins are transferred to a membrane and probed.

The next experiment addresses T2, JUN-U (Homo sapiens, UniProt P05412+P63279).
T2 construct: expressed in transfected cells; host or cells: HEK293
Briefly: Trans-SUMOylation by JUN-U. Format: cell-based. The settings on record: protein 2 construct coexpressed with JUN-U and EGFP-SUMO1 in HEK293, western blot.

The target of another experiment is T3, U-CDC37 (Homo sapiens, UniProt P63279+Q16543).
T3 construct: expressed in transfected cells; host or cells: HEK293
The experiment in a line: Trans-SUMOylation by U-CDC37. Format: cell-based. Also on record: key: (++), strong TransSUMOylation; (+), TransSUMOylation; (+/−) weak TransSUMOylation; (−) no detectable TransSUMOylation. Conditions: protein 2 construct coexpressed with U-CDC37 and EGFP-SUMO1 in HEK293; western blot; Table 1. The source says:
(§1) To identify new SUMOylation substrates and to study the function of SUMOylation the Ubc9/substrate dimerisation-dependent SUMOylation system (USDDS) was developed which consists of fusions of the SUMOylation substrate and of the SUMO-conjugating enzyme Ubc9 to the chemically activatable heterodimerisation domains FKBP and FRB, respectively, as shown in FIG. 2. When the substrate protein fused to FKBP is coexpressed with Ubc9-FRB, treatment of HEK293 cells with the rapamycin-related dimerizer AP21967 induces SUMOylation of the substrate protein fused to FKBP at its specific SUMOylation site. […] Dependent on an EcoRl site in the coding sequence, seven C-terminal amino acids of the human STAT1a in the STAT1-FKBP/FRB fusion proteins are missing. For the SUMOylation analysis HEK293 (human embryonic kidney cells) cells have been used. HEK293 cells were cultured in Dulbecco's modified Eagle's medium with high glucose, complemented with 10% fetal calf serum, 2 mM L-glutamine, 100 U/ml penicillin and […] streptomycin. […]
(§2) As shown above, the SUMOylation of a protein of interest can be induced by the heterodimerisation with a binding protein fused to Ubc9. […] Therefore the protein pairs were coexpressed with EGFP-SUMO1 in HEK293 cells and after 24h the transfectants were lysed and the protein extracts were analyzed in western blots. […]

A further experiment deals with T4, U-MK2 (Homo sapiens, UniProt P49137+P63279).
T4 construct: expressed in transfected cells; host or cells: HEK293
The experiment in a line: Trans-SUMOylation by U-MK2. Format: cell-based. The settings on record: protein 2 construct coexpressed with U-MK2 and EGFP-SUMO1 in HEK293; western blot; Table 2.

A further experiment concerns the target T5, MK2-U (Homo sapiens, UniProt P49137+P63279).
T5 construct: expressed in transfected cells; host or cells: HEK293
The experiment in a line: Trans-SUMOylation by MK2-U. Format: cell-based. Conditions: protein 2 construct coexpressed with MK2-U and EGFP-SUMO1 in HEK293; western blot; Table 2.

For the next experiment, the target named is T6, U-p38α (Homo sapiens, UniProt P63279+Q16539).
T6 construct: expressed in transfected cells; host or cells: HEK293
Briefly: Trans-SUMOylation by U-p38α. The format is cell-based. Conditions: protein 2 construct coexpressed with U-p38α and EGFP-SUMO1 in HEK293; western blot; Table 2.

For another experiment, the target named is T7, U-MK5 (Homo sapiens, UniProt P63279+Q8IW41).
T7 construct: expressed in transfected cells; host or cells: HEK293
Briefly: Trans-SUMOylation by U-MK5. Format: cell-based. Also on record: key: (++), strong TransSUMOylation; (+), TransSUMOylation; (+/−) weak TransSUMOylation; (−) no detectable TransSUMOylation. The settings on record: protein 2 construct coexpressed with U-MK5 and EGFP-SUMO1 in HEK293; western blot; Table 2.
Text: as §1, §2

A further experiment deals with STAT1. The experiment in a line: Interplay of STAT1 Y701 phosphorylation and K703 SUMOylation by USDDS, western blot. The format is cell-based, human. The settings on record: HEK293, USDDS with AP21967 1 μM and interferon-β, any stimulation scenario.
A further experiment concerns the target T8, Ubc9-FKBP (Homo sapiens, UniProt P42345+P63279).
T8 construct: expressed in transfected cells; host or cells: HEK293
The experiment in a line: USDDS specificity for SUMOylation sites (K-to-R mutants), western blot. Conditions: HEK293, coexpressed with Ubc9-FKBP and EGFP-SUMO1, stimulated with AP21967 1 μM. The format is cell-based.

The mark [1] stands for this setting: protein 2 construct coexpressed with p53-U and EGFP-SUMO1 in HEK293, Table 2.

T2 sequence (P05412+P63279 fused): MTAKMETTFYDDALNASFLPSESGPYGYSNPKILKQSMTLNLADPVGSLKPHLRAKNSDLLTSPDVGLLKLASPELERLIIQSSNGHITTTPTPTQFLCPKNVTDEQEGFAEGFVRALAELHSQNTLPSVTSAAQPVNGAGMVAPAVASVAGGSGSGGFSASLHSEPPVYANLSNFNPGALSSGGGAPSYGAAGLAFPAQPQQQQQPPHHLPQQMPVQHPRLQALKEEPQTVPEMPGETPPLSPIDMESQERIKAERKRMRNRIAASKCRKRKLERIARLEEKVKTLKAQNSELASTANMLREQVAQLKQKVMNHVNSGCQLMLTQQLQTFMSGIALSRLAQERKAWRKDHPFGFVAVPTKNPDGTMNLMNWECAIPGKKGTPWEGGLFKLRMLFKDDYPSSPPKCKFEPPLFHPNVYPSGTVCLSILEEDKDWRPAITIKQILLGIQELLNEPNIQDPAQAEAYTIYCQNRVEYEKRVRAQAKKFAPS
T5 sequence (P49137+P63279 fused): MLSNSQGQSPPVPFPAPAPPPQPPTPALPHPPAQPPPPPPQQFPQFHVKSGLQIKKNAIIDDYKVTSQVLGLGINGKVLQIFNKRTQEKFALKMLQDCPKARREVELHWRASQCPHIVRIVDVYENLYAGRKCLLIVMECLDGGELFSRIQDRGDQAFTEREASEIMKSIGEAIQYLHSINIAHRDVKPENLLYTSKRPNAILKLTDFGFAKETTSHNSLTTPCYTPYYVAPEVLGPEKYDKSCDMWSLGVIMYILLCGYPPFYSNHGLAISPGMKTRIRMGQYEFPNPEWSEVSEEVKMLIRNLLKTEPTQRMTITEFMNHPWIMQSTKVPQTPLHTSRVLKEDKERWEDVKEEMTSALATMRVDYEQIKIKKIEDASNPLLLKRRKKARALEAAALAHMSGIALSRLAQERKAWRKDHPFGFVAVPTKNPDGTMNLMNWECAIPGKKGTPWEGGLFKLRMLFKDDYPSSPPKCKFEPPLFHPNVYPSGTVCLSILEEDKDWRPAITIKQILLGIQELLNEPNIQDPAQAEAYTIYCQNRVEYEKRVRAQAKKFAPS
T4 sequence (P63279+P49137 fused): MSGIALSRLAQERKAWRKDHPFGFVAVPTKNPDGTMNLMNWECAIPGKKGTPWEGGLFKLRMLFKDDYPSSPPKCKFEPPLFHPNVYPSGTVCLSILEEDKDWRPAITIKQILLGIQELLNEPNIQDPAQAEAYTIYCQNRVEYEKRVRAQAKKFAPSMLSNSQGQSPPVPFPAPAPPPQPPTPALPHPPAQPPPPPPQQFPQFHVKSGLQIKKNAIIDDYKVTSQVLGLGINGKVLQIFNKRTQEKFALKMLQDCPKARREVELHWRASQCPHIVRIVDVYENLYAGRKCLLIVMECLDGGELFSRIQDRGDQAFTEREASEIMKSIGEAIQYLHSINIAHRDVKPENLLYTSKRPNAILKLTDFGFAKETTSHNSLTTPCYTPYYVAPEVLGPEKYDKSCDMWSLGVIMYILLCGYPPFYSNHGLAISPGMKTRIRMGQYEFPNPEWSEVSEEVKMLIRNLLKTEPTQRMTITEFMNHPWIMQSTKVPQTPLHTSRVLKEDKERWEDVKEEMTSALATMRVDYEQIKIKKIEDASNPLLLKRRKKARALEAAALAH
T6 sequence (P63279+Q16539 fused): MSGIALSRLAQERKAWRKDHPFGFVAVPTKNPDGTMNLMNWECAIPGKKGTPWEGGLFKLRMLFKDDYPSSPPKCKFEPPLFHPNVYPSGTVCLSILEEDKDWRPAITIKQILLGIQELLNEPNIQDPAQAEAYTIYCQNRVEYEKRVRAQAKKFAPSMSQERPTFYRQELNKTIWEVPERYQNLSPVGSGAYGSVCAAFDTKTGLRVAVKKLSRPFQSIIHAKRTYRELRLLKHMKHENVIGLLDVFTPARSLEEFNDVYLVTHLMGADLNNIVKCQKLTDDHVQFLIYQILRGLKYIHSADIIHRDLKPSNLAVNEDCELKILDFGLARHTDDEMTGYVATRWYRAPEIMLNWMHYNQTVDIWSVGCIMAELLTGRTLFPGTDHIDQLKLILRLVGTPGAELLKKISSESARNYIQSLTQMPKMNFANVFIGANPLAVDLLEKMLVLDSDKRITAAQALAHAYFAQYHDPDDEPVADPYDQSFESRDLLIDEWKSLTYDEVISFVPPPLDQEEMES
T7 sequence (P63279+Q8IW41 fused): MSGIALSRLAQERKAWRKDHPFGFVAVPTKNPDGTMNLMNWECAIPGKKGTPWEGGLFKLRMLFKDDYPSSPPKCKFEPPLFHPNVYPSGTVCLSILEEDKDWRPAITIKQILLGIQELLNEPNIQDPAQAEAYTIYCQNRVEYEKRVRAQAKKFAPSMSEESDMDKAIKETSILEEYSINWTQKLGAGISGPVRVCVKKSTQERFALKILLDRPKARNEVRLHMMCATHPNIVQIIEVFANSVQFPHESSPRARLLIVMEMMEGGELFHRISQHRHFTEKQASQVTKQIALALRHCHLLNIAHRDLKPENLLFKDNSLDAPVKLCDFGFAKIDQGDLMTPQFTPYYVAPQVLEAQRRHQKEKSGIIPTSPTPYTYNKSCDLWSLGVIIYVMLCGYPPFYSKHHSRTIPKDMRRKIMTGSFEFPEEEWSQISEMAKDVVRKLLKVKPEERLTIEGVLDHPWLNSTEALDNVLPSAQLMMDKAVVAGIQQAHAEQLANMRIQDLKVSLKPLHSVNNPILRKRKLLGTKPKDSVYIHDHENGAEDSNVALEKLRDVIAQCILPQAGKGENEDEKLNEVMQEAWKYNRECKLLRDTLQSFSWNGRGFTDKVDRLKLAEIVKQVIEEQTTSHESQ
T3 sequence (P63279+Q16543 fused): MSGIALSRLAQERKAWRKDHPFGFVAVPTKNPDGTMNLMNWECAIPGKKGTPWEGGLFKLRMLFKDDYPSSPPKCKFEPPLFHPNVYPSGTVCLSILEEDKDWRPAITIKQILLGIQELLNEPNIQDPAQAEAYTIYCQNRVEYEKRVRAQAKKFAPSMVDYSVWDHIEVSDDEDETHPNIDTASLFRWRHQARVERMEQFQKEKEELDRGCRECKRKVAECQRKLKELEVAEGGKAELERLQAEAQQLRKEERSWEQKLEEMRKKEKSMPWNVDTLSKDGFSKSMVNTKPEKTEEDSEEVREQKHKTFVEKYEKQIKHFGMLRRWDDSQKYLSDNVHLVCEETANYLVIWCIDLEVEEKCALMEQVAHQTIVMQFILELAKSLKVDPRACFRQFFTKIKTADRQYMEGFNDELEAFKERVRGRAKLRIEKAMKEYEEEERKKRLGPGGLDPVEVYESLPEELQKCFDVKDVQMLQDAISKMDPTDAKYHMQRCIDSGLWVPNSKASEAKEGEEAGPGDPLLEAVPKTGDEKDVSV
T8 sequence (P63279 with tags, fused parts or gaps): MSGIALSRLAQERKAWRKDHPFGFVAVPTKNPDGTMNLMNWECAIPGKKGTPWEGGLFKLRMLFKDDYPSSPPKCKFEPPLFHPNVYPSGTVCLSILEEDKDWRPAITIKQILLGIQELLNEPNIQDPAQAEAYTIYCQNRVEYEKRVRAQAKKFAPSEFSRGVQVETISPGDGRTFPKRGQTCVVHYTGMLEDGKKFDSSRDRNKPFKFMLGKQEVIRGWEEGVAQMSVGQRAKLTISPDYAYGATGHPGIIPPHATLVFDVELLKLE
T8 sequence (P42345 2021-2113 limits assumed): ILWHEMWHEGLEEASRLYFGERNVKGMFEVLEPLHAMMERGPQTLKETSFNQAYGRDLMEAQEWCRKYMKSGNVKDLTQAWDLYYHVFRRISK

B1: HA-JNK1: JNK1 fused to HA tag (protein)
chain: MSRSKRDNNFYSVEIGDSTFTVLKRYQNLKPIGSGAQGIVCAAYDAILERNVAIKKLSRPFQNQTHAKRAYRELVLMKCVNHKNIIGLLNVFTPQKSLEEFQDVYIVMELMDANLCQVIQMELDHERMSYLLYQMLCGIKHLHSAGIIHRDLKPSNIVVKSDCTLKILDFGLARTAGTSFMMTPYVVTRYYRAPEVILGMGYKENVDLWSVGCIMGEMVCHKILFPGRDYIDQWNKVIEQLGTPCPEFMKKLQPTVRTYVENRPKYAGYSFEKLFPDVLFPADSEHNKLKASQARDLLSKMLVIDASKRISVDEALQHPYINVWYDPSEAEAPPPKIPDKQLDEREHTIEEWKELIYKEVMDLEERTKNGVIRGQPSPLAQVQQ
modifications: left off: small tags and cut ends
notes: JNK1 fused to HA tag
On to B1, for which the Trans-SUMOylation entry is on record as “−” in the experiment with p53-U (protein 2 construct coexpressed with P53-U (p53-U) and EGFP-SUMO1 in HEK293, Table 1); “−” with JUN-U (Table 1).

B2: GST-CDK4: CDK4 fused to GST tag (protein, UniProt P11802 2-303, looked up)
Cyclin-dependent kinase 4: ATSRYEPVAEIGVGAYGTVYKARDPHSGHFVALKSVRVPNGGGGGGGLPISTVREVALLRRLEAFEHPNVVRLMDVCATSRTDREIKVTLVFEHVDQDLRTYLDKAPPPGLPAETIKDLMRQFLRGLDFLHANCIVHRDLKPENILVTSGGTVKLADFGLARIYSYQMALTPVVVTLWYRAPEVLLQSTYATPVDMWSVGCIFAEMFRRKPLFCGNSEADQLGKIFDLIGLPPEDDWPRDVSLPRGAFPPRGPRPVQSVVPEMEESGAQLLLEMLTFNPHKRISAFRALQHSYLHKDEGNPE
modifications: GST tag
Regarding B2, the Trans-SUMOylation entry with p53-U (setting [1]) is listed as “−”; with U-CDC37 it was “+”.

B3: GST-DRG1: DRG1 fused to GST tag (protein)
chain: MSSTLAKIAEIEAEMARTQKNKATAHHLGLLKARLAKLRRELITPKGGGGGGPGEGFDVAKTGDARIGFVGFPSVGKSTLLSNLAGVYSEVAAYEFTTLTTVPGVIRYKGAKIQLLDLPGIIEGAKDGKGRGRQVIAVARTCNLILIVLDVLKPLGHKKIIENELEGFGIRLNSKPPNIGFKKKDKGGINLTATCPQSELDAETVKSILAEYKIHNADVTLRSDATADDLIDVVEGNRVYIPCIYVLNKIDQISIEELDIIYKVPHCVPISAHHRWNFDDLLEKIWDYLKLVRIYTKPKGQLPDYTSPVVLPYSRTTVEDFCMKIHKNLIKEFKYALVWGLSVKHNPQKVGKDHTLEDEDVIQIVKK
modifications: left off: a dimerising Fc or GST
notes: DRG1 fused to GST tag
B3: the Trans-SUMOylation entry with U-MK2, with p53-U (setting [1]), with JUN-U (Table 2), in the experiment with MK2-U, with U-p38α and with U-MK5 was “−” each time.

B4: STAT1-FRB: human STAT1a fused to FRB (T2098L) heterodimerisation domain (protein)
chain: MSQWYELQQLDSKFLEQVHQLYDDSFPMEIRQYLAQWLEKQDWEHAANDVSFATIRFHDLLSQLDDQYSRFSLENNFLLQHNIRKSKRNLQDNFQEDPIQMSMIIYSCLKEERKILENAQRFNQAQSGNIQSTVMLDKQKELDSKVRNVKDKVMCIEHEIKSLEDLQDEYDFKCKTLQNREHETNGVAKSDQKQEQLLLKKMYLMLDNKRKEVVHKIIELLNVTELTQNALINDELVEWKRRQQSACIGGPPNACLDQLQNWFTIVAESLQQVRQQLKKLEELEQKYTYEHDPITKNKQVLWDRTFSLFQQLIQSSFVVERQPCMPTHPQRPLVLKTGVQFTVKLRLLVKLQELNYNLKVKVLFDKDVNERNTVKGFRKFNILGTHTKVMNMEESTNGSLAAEFRHLQLKEQKNAGTRTNEGPLIVTEELHSLSFETQLCQPGLVIDLETTSLPVVVISNVSQLPSGWASILWYNMLVAEPRNLSFFLTPPCARWAQLSEVLSWQFSSVTKRGLNVDQLNMLGEKLLGPNASPDGLIPWTRFCKENINDKNFPFWLWIESILELIKKHLLPLWNDGCIMGFISKERERALLKDQQPGTFLLRFSESSREGAITFTWVERSQNGGEPDFHAVEPYTKKELSAVTFPDIIRNYKVMAAENIPENPLKYLYPNIDKDHAFGKYYSRPKEAPEPMELDGPKGTGYIKTELISVSEVHPSRLQTTDNLLPMSPEEFDEVSRIVGSVEFILWHEMWHEGLEEASRLYFGERNVKGMFEVLEPLHAMMERGPQTLKETSFNQAYGRDLMEAQEWCRKYMKSGNVKDLLQAWDLYYHVFRRISK
For B4, the “double modification of STAT1 by SUMOylation and Y701 phosphorylation” value in the experiment on STAT1 is given as “no double modification”.

B5: STAT1K703R-FRB: STAT1 SUMOylation site mutant K703R fused to FRB (protein, UniProt P42224 2-750, looked up, variant K703R)
Signal transducer and …: SQWYELQQLDSKFLEQVHQLYDDSFPMEIRQYLAQWLEKQDWEHAANDVSFATIRFHDLLSQLDDQYSRFSLENNFLLQHNIRKSKRNLQDNFQEDPIQMSMIIYSCLKEERKILENAQRFNQAQSGNIQSTVMLDKQKELDSKVRNVKDKVMCIEHEIKSLEDLQDEYDFKCKTLQNREHETNGVAKSDQKQEQLLLKKMYLMLDNKRKEVVHKIIELLNVTELTQNALINDELVEWKRRQQSACIGGPPNACLDQLQNWFTIVAESLQQVRQQLKKLEELEQKYTYEHDPITKNKQVLWDRTFSLFQQLIQSSFVVERQPCMPTHPQRPLVLKTGVQFTVKLRLLVKLQELNYNLKVKVLFDKDVNERNTVKGFRKFNILGTHTKVMNMEESTNGSLAAEFRHLQLKEQKNAGTRTNEGPLIVTEELHSLSFETQLCQPGLVIDLETTSLPVVVISNVSQLPSGWASILWYNMLVAEPRNLSFFLTPPCARWAQLSEVLSWQFSSVTKRGLNVDQLNMLGEKLLGPNASPDGLIPWTRFCKENINDKNFPFWLWIESILELIKKHLLPLWNDGCIMGFISKERERALLKDQQPGTFLLRFSESSREGAITFTWVERSQNGGEPDFHAVEPYTKKELSAVTFPDIIRNYKVMAAENIPENPLKYLYPNIDKDHAFGKYYSRPKEAPEPMELDGPKGTGYIRTELISVSEVHPSRLQTTDNLLPMSPEEFDEVSRIVGSVEFDSMMNTV
modifications: fused to FRB domain
B5: in the experiment with Ubc9-FKBP, the “SUMOylation of mutant fusion protein” value is “nearly no SUMOylation”.
